Measurements as given in patent publication US20160115241A1 (Amgen, published 2016).

T1: cynomolgus monkey CD3 epsilon chain (CD3ε) (cynomolgus monkey (Macaca fascicularis), UniProt Q95LI5 22-198)
T1 chain: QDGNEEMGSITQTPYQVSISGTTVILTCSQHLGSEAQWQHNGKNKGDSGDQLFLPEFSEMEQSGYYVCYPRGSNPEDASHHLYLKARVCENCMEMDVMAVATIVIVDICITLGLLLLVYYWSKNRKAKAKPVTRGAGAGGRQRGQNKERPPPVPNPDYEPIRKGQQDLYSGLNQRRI


Key:
human mesothelin (MSLN) = human mesothelin (MSLN) (human, UniProt Q13421 296-598); assay: cell-based or functional assay
[1] = molecular target: T1, cynomolgus monkey CD3 epsilon chain …; assay: cell-based or functional assay
[2] = molecular target: T2, human CD3 epsilon chain (CD3ε) (human, UniProt P07766 22-207); assay: FACS on isolated human T cells; FITC anti-human light chain secondary
T2 construct: also called CD3ε on human T cells; human CD3ε
Protocol: (§1) The heterodimeric bispecific antibodies described in Example 1 were produced in HEK 293 cells and were assayed by fluorescence activated cell sorting (FACS) for binding to T cells, which express CD3ε, and to a human ovarian cancer cell line, Ovcar-8, which expresses mesothelin. Briefly, the heterodimeric bispecific antibodies were incubated with about 50,000 Ovcar-8 cells or isolated human or cynomolgus monkey T cells at 4° C. for one hour. The cells were then washed and stained with a fluorescein isothiocyanate (FITC)-conjugated anti-human light chain secondary antibody and analyzed by flow cytometry. The relative binding was represented by the geometric mean of fluorescence intensity.

[3] = molecular target: T1, cynomolgus monkey CD3 epsilon chain …; assay: FACS on isolated cynomolgus monkey T cells; FITC anti-human light chain secondary
Protocol: as §1

[4] = molecular target: T3, folate receptor 1 (FOLR1) (human, UniProt P15328 25-234); assay: cell-based or functional assay
[5] = molecular target: T3, folate receptor 1 (FOLR1); assay: cell-based or functional assay; remark: listed apart in the source

T3 sequence (P15328 25-234): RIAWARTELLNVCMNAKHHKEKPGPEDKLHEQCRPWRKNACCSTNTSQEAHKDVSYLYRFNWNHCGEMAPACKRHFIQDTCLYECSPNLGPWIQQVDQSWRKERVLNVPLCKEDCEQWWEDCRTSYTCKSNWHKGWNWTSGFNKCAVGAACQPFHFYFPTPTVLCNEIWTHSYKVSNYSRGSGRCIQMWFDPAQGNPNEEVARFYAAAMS
human mesothelin (MSLN), sequence (Q13421 other isoform, or with tags, fused parts or gaps limits assumed): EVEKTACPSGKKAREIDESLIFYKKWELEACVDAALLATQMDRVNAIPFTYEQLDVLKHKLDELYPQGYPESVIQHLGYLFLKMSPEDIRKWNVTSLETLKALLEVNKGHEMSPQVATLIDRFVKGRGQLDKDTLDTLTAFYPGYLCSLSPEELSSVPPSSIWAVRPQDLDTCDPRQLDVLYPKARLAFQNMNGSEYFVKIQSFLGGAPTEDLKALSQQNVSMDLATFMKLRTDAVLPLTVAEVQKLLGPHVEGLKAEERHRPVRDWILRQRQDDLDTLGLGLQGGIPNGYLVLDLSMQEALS
T2 sequence (P07766 22-207 limits assumed): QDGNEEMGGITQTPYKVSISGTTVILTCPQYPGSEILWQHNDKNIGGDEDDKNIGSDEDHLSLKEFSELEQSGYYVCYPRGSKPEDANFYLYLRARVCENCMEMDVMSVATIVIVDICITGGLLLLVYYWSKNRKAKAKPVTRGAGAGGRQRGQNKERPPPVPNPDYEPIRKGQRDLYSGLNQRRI

Cyno TDCC EC50 (pM), Ovcar-8 target cells with cynomolgus monkey T cells [1] [pM]	FACS binding (geometric mean) [2]	FACS binding (geometric mean) [3]	Binder	human TDCC EC50, killing of Ovcar-8 cells (human mesothelin (MSLN)) [pM]	Cyno TDCC Max killing (%), Ovcar-8 target cells with cynomolgus monkey T cells [1] [%]	also measured
–	–	–	P73356.3 (anti-MSLN/CD3ε heterodimeric bispecific antibody with Fc region) (bispecific antibody, human IgG1) chain 1: QVQLQESGPGLVKPSQTLSLTCTVSGGSINNNNYYWTWIRQHPGKGLEWIGYIYYSGSTFYNPSLKSRVTISVDTSKTQFSLKLSSVTAADTAVYYCAREDTMTGLDVWGQGTLVTVSSGGGGSGGGGSSSYELTQPPSVSVSPGQTARITCSGDALPKKYAYWYQQKSGQAPVLVIYEATKRPSGIPERFSGSSSGTMATLTLSGAQVEDEADYYCYSTDSTNYHWVFGGGTKLTVLGASTKGPSVFPLAPCSRSTSESTAALGCLVKDYFPEPVTVSWNSGALTSGVHTFPAVLQSSGLYSLSSVVTVPSSNFGTQTYTCNVDHKPSNTKVDKTVAAAEPKSSDKTHTCPPCPAPELLGGPSVFLFPPKPKDTLMISRTPEVTCVVVDVSHEDPEVKFNWYVDGVEVHNAKTKPREEQYNSTYRVVSVLTVLHQDWLNGKEYKCKVSNKQLPAPIEKTISKAKGQPREPQVYTLPPSRKEMTKNQVSLTCLVKGFYPSDIAVEWESNGQPENNYKTTPPVLKSDGSFFLYSKLTVDKSRWQQGNVFSCSVMHEALHNHYTQKSLSLSPGKAAAHHHHHH chain 2: EVQLVESGGGLVKPGVSLRLSCAASGFTFSRYGMNWVRQAPGKGLEWVSSISSSGTYIKYADSVKGRFTISRDNAKNSLNLQMNSLRAEDTAVYYCARDRDRYPLDYWGQGTLVTVSSGGGGSGGGGSDIQMTQSPSSLSASVGDRVTITCRASQSINNYLNWYQQKPGKAPTLLIYAASSLQSGVPSRFSGSRSGTDFTLTISSLQPEDFAAYFCQQTYSNPTFGQGTKVEVKRTVAAPSVFIFPPSDEQLKSGTASVVCLLNNFYPREAKVQWKVDNALQSGNSQESVTEQDSKDSTYSLSSTLTLSKADYEKHKVYACEVTHQGLSSPVTKSFNRGECAAAEPKSSDKTHTCPPCPAPELLGGPSVFLFPPKPKDTLMISRTPEVTCVVVAVSHEDPEVKFNWYVDGVEVHNAKTKPREEQYNSTYRVVSVLTVLHQDWLNGKEYKCKVSNKALPAPIEKTISKAKGQPREPQVYTLPPSREEMTKNQVSLTCLVKGFYPSDIAVEWESNGQPENNYDTTPPVLDSDGSFFLYSDLTVDKSRWQQGNVFSCSVMHEALHNHYTQKSLSLSPGK	< 1	–	–
18.8	11 geometric mean of fluorescence intensity	110 geometric mean of fluorescence intensity	H69072.4 (anti-MSLN/CD3ε heterodimeric bispecific antibody) (bispecific antibody) chain 1: DIQMTQSPSSVSASVGDRVTITCRASQGISSWLAWYQQKPGKAPKLLIYAASSLQSGVPSRFSGSGSGAAFTLTISSLQPEDFATYFCQQANSFPLTFAGGTKVDIKRGGGGSGGGGSQVQLQESGPGLVKPSQTLSLTCTVSGGSINNNNYYWTWIRQHPGKGLEWIGYIYYSGSTFYNPSLKSRVTISVDTSKTQFSLKLSSVTAADTAVYYCAREDTMTGLDVWGQGTTVTVSSASTKGPSVFPLAPCSRSTSESTAALGCLVKDYFPEPVTVSWNSGALTSGVHTFPAVLQSSGLYSLSSVVTVPSSNFGTQTYTCNVDHKPSNTKVDKTVGGGGSAAAVPRDLEVVAATPTSLLISWDAPHHGVAYYRITYGETGGNSPVQEFTVPGSKSTATISGLKPGVDYTINVYAVLAYPRGYPLSKPISINYRTDYKDDDDKGSSHHHHHH chain 2: DIQMTQSPSSLSASVGDRVTITCRASQSINNYLNWYQQKPGKAPTLLIYAASSLQSGVPSRFSGSRSGTDFTLTISSLQPEDFAAYFCQQTYSNPTFGQGTKVEVKGGGGSGGGGSQVQLVESGGGVVQPGRSLRLSCAASGFTFSSYGMHWVRQAPGKGLEWVAVISYPGNTKYYADSVKGRFTISRDNSKNTLYLQMNSLRAEDTAVYFCARDQKEWRLIFDYWGQGTLVTVSSRTVAAPSVFIFPPSDEQLKSGTASVVCLLNNFYPREAKVQWKVDNALQSGNSQESVTEQDSKDSTYSLSSTLTLSKADYEKHKVYACEVTHQGLSSPVTKSFNRGEC	–	91	–
8.1	66 geometric mean of fluorescence intensity	276 geometric mean of fluorescence intensity	H71365.2 (anti-MSLN/CD3ε heterodimeric bispecific antibody) (bispecific antibody) chain 1: QVQLVESGGGVVQPGRSLRLSCAASGFTFSSYGMHWVRQAPGKGLEWVAVISYPGNTKYYADSVKGRFTISRDNSKNTLYLQMNSLRAEDTAVYFCARDQKEWRLIFDYWGQGTLVTVSSGGGGSGGGGSQVQLQESGPGLVKPSQTLSLTCTVSGGSINNNNYYWTWIRQHPGKGLEWIGYIYYSGSTFYNPSLKSRVTISVDTSKTQFSLKLSSVTAADTAVYYCAREDTMTGLDVWGQGTTVTVSSASTKGPSVFPLAPCSRSTSESTAALGCLVKDYFPEPVTVSWNSGALTSGVHTFPAVLQSSGLYSLSSVVTVPSSNFGTQTYTCNVDHKPSNTKVDKTVGGGGSAAAVPRDLEVVAATPTSLLISWDAPHHGVAYYRITYGETGGNSPVQEFTVPGSKSTATISGLKPGVDYTINVYAVLAYPRGYPLSKPISINYRTDYKDDDDKGSSHHHHHH chain 2: DIQMTQSPSSVSASVGDRVTITCRASQGISSWLAWYQQKPGKAPKLLIYAASSLQSGVPSRFSGSGSGAAFTLTISSLQPEDFATYFCQQANSFPLTFAGGTKVDIKRGGGGSGGGGSDIQMTQSPSSLSASVGDRVTITCRASQSINNYLNWYQQKPGKAPTLLIYAASSLQSGVPSRFSGSRSGTDFTLTISSLQPEDFAAYFCQQTYSNPTFGQGTKVEVKRTVAAPSVFIFPPSDEQLKSGTASVVCLLNNFYPREAKVQWKVDNALQSGNSQESVTEQDSKDSTYSLSSTLTLSKADYEKHKVYACEVTHQGLSSPVTKSFNRGEC	–	86	–
–	–	–	P136795.3 (anti-FOLR1/CD3ε heterodimeric bispecific antibody) (bispecific antibody) chain 1: EVQLVESGGGLVQPGGSLKLSCAASGFTFNSYAMNWVRQAPGKGLEWVARIRSKYNNYATYYADSVKGRFTISRDDSKNTAYLQMNNLKTEDTAVYYCVRHGNFGNSYVSWWAYWGQGTLVTVSSGGGGSGGGGSQSVLTQPPSVSEAPRQRVTISCSGSSSNIGNNAVNWYQQLPGKAPKLLIYYDDMLSSGVSDRFSGSKSGTSASLAISGLQSEDEADYYCAAWDDSLNGVVFGGGTKLTVLASTKGPSVFPLAPCSRSTSESTAALGCLVKDYFPEPVTVSWNSGALTSGVHTFPAVLQSSGLYSLSSVVTVPSSNFGTQTYTCNVDHKPSNTKVDKTVGGGGSAAAEPKSSDKTHTCPPCPAPEAAGGPSVFLFPPKPKDTLMISRTPEVTCVVVDVSHEDPEVKFNWYVDGVEVHNAKTKPREEQYNSTYRVVSVLTVLHQDWLNGKEYKCKVSNKALPAPIEKTISKAKGQPREPQVYTLPPSREEMTKNQVSLTCLVKGFYPSDIAVEWESNGQPENNYDTTPPVLDSDGSFFLYSDLTVDKSRWQQGNVFSCSVMHEALHNHYTQKSLSLSPGK chain 2: not shown	–	–	EC50 of specific lysis, Cal-51 cells (printed Cal-61) with human T cells [4]: 1.21 pM; EC50 of specific lysis, T47D cells with human T cells [4]: 1.26 pM; EC50 (pM) for IFN-γ release by T cells in presence of T47D cells [5]: 27.1 pM; EC50 (pM) for IL-2 release by T cells in presence of T47D cells [5]: 20.3 pM; EC50 (pM) for IL-10 release by T cells in presence of T47D cells [5]: 28.3 pM; EC50 (pM) for IL-13 release by T cells in presence of T47D cells [5]: 27.8 pM; EC50 (pM) for TNF-α release by T cells in presence of T47D cells [5]: 12.5 pM
–	–	–	P73352.3 (anti-MSLN/CD3ε heterodimeric bispecific antibody with Fc region, without CH1 and CL) (bispecific antibody) chain 1: EVQLVESGGGLVKPGVSLRLSCAASGFTFSRYGMNWVRQAPGKGLEWVSSISSSGTYIKYADSVKGRFTISRDNAKNSLNLQMNSLRAEDTAVYYCARDRDRYPLDYWGQGTLVTVSSGGGGSGGGGSDIQMTQSPSSLSASVGDRVTITCRASQSINNYLNWYQQKPGKAPTLLIYAASSLQSGVPSRFSGSRSGTDFTLTISSLQPEDFAAYFCQQTYSNPTFGQGTKVEVKRAAAEPKSSDKTHTCPPCPAPELLGGPSVFLFPPKPKDTLMISRTPEVTCVVVNVSHEDPEVKFNWYVDGVEVHNAKTKPREEQYNSTYRVVSVLTVLHQDWLNGKEYKCKVSNKALPAPIEKTISKAKGQPREPQVYTLPPSREEMTKNQVSLTCLVKGFYPSDIAVEWESNGQPENNYDTTPPVLDSDGSFFLYSDLTVDKSRWQQGNVFSCSVMHEALHNHYTQKSLSLSPGK chain 2: QVQLQESGPGLVKPSQTLSLTCTVSGGSINNNNYYWTWIRQHPGKGLEWIGYIYYSGSTFYNPSLKSRVTISVDTSKTQFSLKLSSVTAADTAVYYCAREDTMTGLDVWGQGTLVTVSSGGGGSGGGGSSSYELTQPPSVSVSPGQTARITCSGDALPKKYAYWYQQKSGQAPVLVIYEATKRPSGIPERFSGSSSGTMATLTLSGAQVEDEADYYCYSTDSTNYHWVFGGGTKLTVLGAAAEPKSSDKTHTCPPCPAPELLGGPSVFLFPPKPKDTLMISRTPEVTCVVVDVSHEDPEVKFNWYVDGVEVHNAKTKPREEQYNSTYRVVSVLTVLHQDWLNGKEYKCKVSNKQLPAPIEKTISKAKGQPREPQVYTLPPSRKEMTKNQVSLTCLVKGFYPSDIAVEWESNGQPENNYKTTPPVLKSDGSFFLYSKLTVDKSRWQQGNVFSCSVMHEALHNHYTQKSLSLSPGKAAAHHHHHH	< 1	–	–
